Assay results taken from the Human Domainome abundance scans (Beltran et al. 2025).
± gives the uncertainty stated by the source.

B1: Endonuclease CUE2, residues 9 to 47; numbered along this chain, P36075 (parent)
chain: HESKLSILMDMFPAISKSKLQVHLLENNNDLDLTIGLLL

Variants of: B1
Experiment: abundance fitness (aPCA) (normalised: wild type 0, dead -1); higher = more abundant; growth selection in yeast, the domain comes from the species named
Details: Saccharomyces cerevisiae (strain ATCC 204508 / S288c)

Abundance fitness: each site, then its substitutions
I15: D -0.293 ± 0.11 | E -0.017 ± 0.042 | F 0.163 ± 0.18 | G -0.735 ± 0.055 | H 0.022 ± 0.062 | K -0.142 ± 0.054 | L -0.08 ± 0.063 | M -0.078 ± 0.055 | P -1 ± 0.2 | Q -0.081 ± 0.048 | R -0.343 ± 0.043 | S -0.214 ± 0.057 | T -0.115 ± 0.25 | V -0.115 ± 0.048 | W -0.023 ± 0.038
S16: A -0.026 ± 0.043 | C -0.133 ± 0.14 | D -0.048 ± 0.068 | E -0.09 ± 0.042 | F -0.045 ± 0.1 | G -0.167 ± 0.032 | H 0.384 ± 0.22 | K -0.114 ± 0.055 | L -0.37 ± 0.046 | M -0.395 ± 0.055 | N -0.171 ± 0.074 | P 0.025 ± 0.051 | Q -0.057 ± 0.06 | R -0.15 ± 0.032 | T -0.179 ± 0.074 | V -0.29 ± 0.048 | W -0.654 ± 0.11
K17: A -0.156 ± 0.036 | C -0.356 ± 0.12 | D -0.286 ± 0.1 | E -0.122 ± 0.04 | F -0.343 ± 0.069 | G -0.255 ± 0.044 | H -0.085 ± 0.086 | I -0.387 ± 0.11 | L -0.316 ± 0.057 | M -0.307 ± 0.11 | P -0.082 ± 0.039 | Q 0.013 ± 0.1 | R -0.074 ± 0.037 | S -0.129 ± 0.048 | T -0.263 ± 0.065 | V -0.196 ± 0.042 | W -0.471 ± 0.082 | Y -0.077 ± 0.15
S18: A -0.063 ± 0.036 | D -0.164 ± 0.15 | F 0.056 ± 0.094 | K -0.03 ± 0.077 | L -0.103 ± 0.048 | M -0.11 ± 0.057 | P -0.214 ± 0.075 | Q 0.082 ± 0.099 | R -0.038 ± 0.033 | T 0.015 ± 0.046 | V 0.154 ± 0.036 | W -0.178 ± 0.044
K19: A -0.051 ± 0.035 | C -0.248 ± 0.096 | D -0.081 ± 0.067 | E -0.053 ± 0.042 | F -0.123 ± 0.08 | H -0.151 ± 0.077 | L -0.143 ± 0.045 | M -0.095 ± 0.088 | N 0.063 ± 0.079 | P -0.818 ± 0.08 | Q -0.048 ± 0.044 | R -0.01 ± 0.034 | S -0.059 ± 0.041 | T -0.015 ± 0.047 | V -0.038 ± 0.034 | W -0.248 ± 0.052 | Y -0.364 ± 0.071
L20: C -0.058 ± 0.12 | E -0.748 ± 0.084 | H -0.559 ± 0.081 | I 0.161 ± 0.19 | K -0.838 ± 0.2 | Q -0.705 ± 0.19 | R -0.853 ± 0.079 | S -0.656 ± 0.26 | T -0.702 ± 0.16 | V -0.311 ± 0.048 | W -0.613 ± 0.058
Q21: C -0.061 ± 0.048 | D -0.119 ± 0.064 | E -0.021 ± 0.054 | F 0.012 ± 0.16 | G -0.139 ± 0.041 | H -0.124 ± 0.12 | I 0.155 ± 0.1 | K -0.094 ± 0.047 | L -0.24 ± 0.062 | M -0.089 ± 0.066 | N 0.807 ± 0.49 | P -1.19 ± 0.42 | R -0.085 ± 0.034 | S 0.033 ± 0.049 | T -0.128 ± 0.07 | V -0.118 ± 0.039 | W -0.423 ± 0.046
V22: A -0.001 ± 0.04 | C 0.119 ± 0.082 | D -0.069 ± 0.11 | E -0.05 ± 0.04 | G -0.071 ± 0.036 | I 0.039 ± 0.28 | K 0.03 ± 0.045 | L -0.08 ± 0.041 | M 0.019 ± 0.056 | P -0.464 ± 0.07 | R 0.026 ± 0.032 | S -0.055 ± 0.051 | T -0.006 ± 0.044 | W -0.147 ± 0.039
H23: A -0.075 ± 0.036 | D -0.544 ± 0.11 | E -0.163 ± 0.062 | G -0.342 ± 0.036 | K -0.338 ± 0.1 | L -0.139 ± 0.047 | M -0.165 ± 0.052 | N -0.026 ± 0.089 | P -0.622 ± 0.11 | Q -0.151 ± 0.065 | R -0.124 ± 0.034 | V -0.146 ± 0.037 | W -0.305 ± 0.056 | Y -0.154 ± 0.23
L24: A -0.898 ± 0.091 | E -0.88 ± 0.12 | G -0.929 ± 0.07 | I -1 ± 0.24 | M -0.31 ± 0.1 | P -0.982 ± 0.21 | Q -1.08 ± 0.42 | R -0.855 ± 0.066 | T -0.595 ± 0.2 | V -0.849 ± 0.061 | W -1.05 ± 0.12 | Y -0.57 ± 0.4
L25: A 0.076 ± 0.037 | C -0.002 ± 0.074 | D -0.181 ± 0.19 | E 0.041 ± 0.049 | G 0.001 ± 0.035 | K -0.126 ± 0.058 | M 0.043 ± 0.044 | N -0.333 ± 0.28 | P -0.952 ± 0.15 | Q 0.073 ± 0.13 | R 0.045 ± 0.033 | S -0.017 ± 0.047 | T 0.048 ± 0.047 | V 0.039 ± 0.042 | W -0.065 ± 0.04
E26: A 0.047 ± 0.036 | C -0.331 ± 0.1 | D -0.139 ± 0.13 | F -0.59 ± 0.25 | G -0.123 ± 0.035 | K -0.086 ± 0.14 | L -0.288 ± 0.049 | M -0.176 ± 0.068 | N 0.381 ± 0.095 | Q -0.151 ± 0.086 | R -0.045 ± 0.032 | S -0.131 ± 0.044 | T -0.113 ± 0.047 | V -0.257 ± 0.046 | W -0.639 ± 0.071
N27: C -0.024 ± 0.07 | E -0.134 ± 0.094 | F -0.482 ± 0.25 | G -0.243 ± 0.042 | I -0.461 ± 0.41 | K -0.267 ± 0.14 | L -0.325 ± 0.051 | M -0.191 ± 0.077 | P -0.997 ± 0.12 | Q -0.132 ± 0.072 | R -0.244 ± 0.04 | S -0.164 ± 0.044 | T -0.273 ± 0.062 | V -0.415 ± 0.062 | W -0.364 ± 0.074
N28: A -0.024 ± 0.039 | C -0.329 ± 0.15 | D 0.022 ± 0.12 | E 0.018 ± 0.039 | G 0.025 ± 0.031 | H -0.148 ± 0.18 | K 0.104 ± 0.066 | M -0.045 ± 0.062 | P -0.68 ± 0.11 | Q -0.053 ± 0.061 | R -0.085 ± 0.034 | S 0.035 ± 0.049 | T -0.353 ± 0.078 | V -0.469 ± 0.056 | W -0.485 ± 0.092
N29: A -0.086 ± 0.041 | C 0.052 ± 0.057 | D -0.082 ± 0.11 | F -0.059 ± 0.3 | H -0.117 ± 0.14 | K -0.364 ± 0.076 | L -0.112 ± 0.058 | M -0.008 ± 0.063 | P -0.324 ± 0.088 | Q 0.037 ± 0.082 | R -0.222 ± 0.035 | S -0.065 ± 0.05 | T -0.402 ± 0.088 | V -0.262 ± 0.051 | W 0.039 ± 0.038
D30: A -0.286 ± 0.035 | C -0.261 ± 0.11 | E -0.171 ± 0.042 | G -0.759 ± 0.067 | H -0.145 ± 0.2 | K -0.165 ± 0.11 | L -0.66 ± 0.18 | M 0.097 ± 0.22 | Q -0.194 ± 0.075 | R -0.246 ± 0.045 | S -0.223 ± 0.072 | T -0.813 ± 0.17
L31: C -0.388 ± 0.053 | E -0.633 ± 0.11 | G -0.913 ± 0.084 | H -0.676 ± 0.27 | I -0.064 ± 0.17 | K -0.752 ± 0.18 | M -0.211 ± 0.099 | N -0.881 ± 0.37 | P -1.01 ± 0.21 | Q -0.483 ± 0.077 | R -0.841 ± 0.072 | S -0.816 ± 0.093 | T -0.35 ± 0.046 | V 0.136 ± 0.033 | W -0.694 ± 0.085
D32: A -0.124 ± 0.039 | E -0.055 ± 0.054 | G -0.082 ± 0.034 | H -0.106 ± 0.056 | K -0.003 ± 0.079 | L -0.416 ± 0.078 | N 0.07 ± 0.25 | Q 0.032 ± 0.038 | R -0.091 ± 0.038 | T -0.183 ± 0.052 | V -0.302 ± 0.045 | W -0.499 ± 0.068 | Y -0.659 ± 0.33
L33: C 0.012 ± 0.053 | D 0.031 ± 0.047 | E 0.06 ± 0.042 | F -0.258 ± 0.053 | G 0.031 ± 0.032 | H -0.456 ± 0.23 | I -0.089 ± 0.062 | K 0.036 ± 0.061 | M -0.001 ± 0.046 | N 0.075 ± 0.057 | P -0.008 ± 0.05 | Q -0.068 ± 0.062 | R 0.082 ± 0.032 | S -0.034 ± 0.045 | T -0.004 ± 0.051 | V 0.03 ± 0.035 | W -0.4 ± 0.051 | Y -0.004 ± 0.047
T34: A -0.092 ± 0.036 | C -0.091 ± 0.06 | D -0.88 ± 0.13 | E -0.903 ± 0.11 | G -0.632 ± 0.059 | I -0.447 ± 0.13 | K -0.863 ± 0.37 | L -0.729 ± 0.059 | N -0.296 ± 0.45 | P -0.943 ± 0.14 | Q -0.899 ± 0.12 | R -0.993 ± 0.099 | S -0.235 ± 0.045 | V 0.008 ± 0.037 | W -1.19 ± 0.18
I35: A -0.04 ± 0.043 | C -0.114 ± 0.044 | D -0.78 ± 0.11 | F -0.75 ± 0.18 | G -0.596 ± 0.044 | H -0.371 ± 0.12 | K 0.07 ± 0.048 | L -0.165 ± 0.036 | M -0.065 ± 0.044 | N -0.532 ± 0.17 | P -0.8 ± 0.14 | R 0.07 ± 0.033 | S -0.153 ± 0.045 | T -0.053 ± 0.051 | V -0.067 ± 0.04 | W -0.483 ± 0.071 | Y -0.174 ± 0.058
G36: A 0.025 ± 0.036 | C -0.042 ± 0.055 | D 0.058 ± 0.064 | E 0.067 ± 0.046 | F -0.14 ± 0.094 | K 0.076 ± 0.045 | L -0.438 ± 0.074 | M -0.291 ± 0.18 | N -0.054 ± 0.45 | P -0.056 ± 0.039 | Q 0.004 ± 0.064 | S 0.092 ± 0.042 | T 0.021 ± 0.041 | V -0.383 ± 0.069 | W -0.452 ± 0.055 | Y -0.447 ± 0.097
L37: A 0.055 ± 0.033 | C 0.06 ± 0.06 | D -0.049 ± 0.075 | E 0.001 ± 0.041 | G -0.014 ± 0.038 | H -0.034 ± 0.086
